In publication PMC5427921, “PRL3 phosphatase active site is required for binding the putative magnesium transporter CNNM3” (Scientific Reports, 2017) one finds Kd, dH and stoichiometry N data, which are given here for three substances.

Assay [1] concerns the target CNNM2 CBS-pair domain (Homo sapiens) (UniProt Q9H8M5). To be noted: cited from earlier work.
The target in assay [2] is CNNM3 CBS-pair domain as a GST fusion (human) (UniProt Q8NE01). The experiment in a line: ITC; syringe 160 μM PRL2 or PRL3, cell 16 μM CNNM3 CBS-pair domain as a GST fusion; 22 °C; 30 injections of 10 μl; fitted to a single set of identical sites. Background: Isothermal titration calorimetry measures the heat released or taken up as one component is titrated into another.
Chain of CNNM3 CBS-pair domain as a GST fusion (human) (Q8NE01 309-452): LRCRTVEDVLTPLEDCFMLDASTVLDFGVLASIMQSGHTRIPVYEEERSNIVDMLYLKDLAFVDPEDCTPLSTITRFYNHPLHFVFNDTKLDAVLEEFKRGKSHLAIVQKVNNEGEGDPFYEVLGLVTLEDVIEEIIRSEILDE

The target in assay [3] is CNNM3 CBS-pair domain (Homo sapiens) (UniProt Q8NE01). Particulars: cited from earlier work.
Chain of CNNM3 CBS-pair domain (Homo sapiens) (Q8NE01 309-452): as above

A word on the Kd: it is a measure of binding affinity in units of concentration. The stoichiometry N is the number of molecules, sites or subunits per partner or assembly.

Chain of CNNM2 CBS-pair domain (Homo sapiens) (Q9H8M5 429-584): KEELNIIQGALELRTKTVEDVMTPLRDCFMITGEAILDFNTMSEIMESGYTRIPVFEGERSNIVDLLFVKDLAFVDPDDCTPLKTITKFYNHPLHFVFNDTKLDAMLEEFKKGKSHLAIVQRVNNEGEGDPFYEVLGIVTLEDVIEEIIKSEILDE
Chain of PRL1 (Q93096 1-170): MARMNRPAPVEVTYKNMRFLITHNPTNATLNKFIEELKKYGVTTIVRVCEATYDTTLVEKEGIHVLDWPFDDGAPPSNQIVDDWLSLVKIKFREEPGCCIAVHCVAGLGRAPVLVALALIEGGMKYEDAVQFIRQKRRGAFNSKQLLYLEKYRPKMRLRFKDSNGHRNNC
Chain of PRL2 (Q12974 1-164): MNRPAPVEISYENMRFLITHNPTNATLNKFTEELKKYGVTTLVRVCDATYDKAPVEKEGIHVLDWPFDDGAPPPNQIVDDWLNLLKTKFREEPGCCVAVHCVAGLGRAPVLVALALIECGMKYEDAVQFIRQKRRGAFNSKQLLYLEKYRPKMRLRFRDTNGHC

For the substance PRL1 (from UniProt Q93096), in assay [1], the Kd was 640 nM.

In assay [2], “PRL2 phosphatase (as used in ITC) (from UniProt Q12974 1-167) (enzyme)” had a dH of -16.6 kcal/mol and a stoichiometry N of 1.02.

Turning to PRL2 (from UniProt Q12974), the Kd in assay [3] was 25 nM.
